This note sets out measurements from patent US20170355769A1 (AbbVie / Abbott, published 2017).

Positions count from the first letter of the chain named.

The EC50 is the concentration giving half of the maximal effect. Low readings indicate an effect from little substance, high ones a need for much substance. For orientation: Kd means the equilibrium constant for the complex coming apart. Low readings indicate tighter binding, high ones weaker binding. For orientation: koff means a measure of how fast the partners let go of each other. The low end stands for a long-lived complex, the high end for a short-lived complex. Usually kon stands for the rate constant with which the complex forms.

In one test the target is T1, Human full length B7-H3 (human, UniProt Q5ZPR3 29-534).
T1 construct: On 3T12 fibroblasts expressing full length human B7-H3 or on NCI-H1650 cells; signal peptide residues 1-28 stated; also called huB7-H3; CD276
T1 sequence: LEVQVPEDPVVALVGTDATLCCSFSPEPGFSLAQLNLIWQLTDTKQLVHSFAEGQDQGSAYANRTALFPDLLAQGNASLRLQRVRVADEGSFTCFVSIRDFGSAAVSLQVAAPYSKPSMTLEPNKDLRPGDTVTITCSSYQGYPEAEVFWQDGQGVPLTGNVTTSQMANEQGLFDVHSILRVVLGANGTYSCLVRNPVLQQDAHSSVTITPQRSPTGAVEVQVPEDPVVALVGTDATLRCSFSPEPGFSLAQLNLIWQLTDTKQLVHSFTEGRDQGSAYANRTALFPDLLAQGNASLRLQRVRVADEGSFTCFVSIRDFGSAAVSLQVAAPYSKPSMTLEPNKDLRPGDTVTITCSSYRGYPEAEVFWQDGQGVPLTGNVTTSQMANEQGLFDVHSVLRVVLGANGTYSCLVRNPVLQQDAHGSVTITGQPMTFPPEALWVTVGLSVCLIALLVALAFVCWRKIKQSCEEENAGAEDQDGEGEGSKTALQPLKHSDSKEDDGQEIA
Nature of the test: FACS, 3T12 transfectants. How it is done:
(§1) A selection of hits were subcloned using the MoFlo (Beckman, Indianapolis, Ind., US) by depositing a single cell per well into 96 well cell culture plates to ensure clonality of the cell line. Resulting colonies were screened for specificity by FACS using mouse 3T12 fibroblast cell lines expressing the human B7-H3, cynomolgous B7-H3 or mouse B7-H3. Isotype of each monoclonal antibody was determined using the Mouse Monoclonal Isostyping Kit (Roche, No. 11-493-027-001, Indianapolis, Ind., USA).

Test [1] concerns the target T2, Cynomolgous B7-H3 on cells (cynomolgus).
T2 construct: whole, on cells; also called cyB7-H3; cyno B7-H3
Nature of the test: FACS, 3T12 transfectants. How it is done: as §1
In general terms: In flow cytometry, cells or beads pass a laser one at a time.

The target in a further test is T3, Mouse B7-H3 on cells (mouse, UniProt Q8VE98 29-316).
T3 construct: whole, on cells
T3 sequence (looked up): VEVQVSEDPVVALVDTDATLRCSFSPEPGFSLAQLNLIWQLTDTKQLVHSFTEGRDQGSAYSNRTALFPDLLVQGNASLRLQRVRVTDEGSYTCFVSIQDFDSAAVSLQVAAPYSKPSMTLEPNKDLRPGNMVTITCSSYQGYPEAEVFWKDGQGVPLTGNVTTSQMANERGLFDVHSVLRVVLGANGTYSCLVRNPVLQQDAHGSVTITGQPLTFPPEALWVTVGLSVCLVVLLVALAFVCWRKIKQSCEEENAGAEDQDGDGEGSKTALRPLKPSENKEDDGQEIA
Nature of the test: FACS, 3T12 transfectants. As to the method: as §1

The target in test [2] is T4, Human B7-H3-ECD (His tag) (human, UniProt Q5ZPR3 29-461).
T4 construct: SPR analyte; also called huB7-H3; soluble ECD of human B7-H3
T4 sequence: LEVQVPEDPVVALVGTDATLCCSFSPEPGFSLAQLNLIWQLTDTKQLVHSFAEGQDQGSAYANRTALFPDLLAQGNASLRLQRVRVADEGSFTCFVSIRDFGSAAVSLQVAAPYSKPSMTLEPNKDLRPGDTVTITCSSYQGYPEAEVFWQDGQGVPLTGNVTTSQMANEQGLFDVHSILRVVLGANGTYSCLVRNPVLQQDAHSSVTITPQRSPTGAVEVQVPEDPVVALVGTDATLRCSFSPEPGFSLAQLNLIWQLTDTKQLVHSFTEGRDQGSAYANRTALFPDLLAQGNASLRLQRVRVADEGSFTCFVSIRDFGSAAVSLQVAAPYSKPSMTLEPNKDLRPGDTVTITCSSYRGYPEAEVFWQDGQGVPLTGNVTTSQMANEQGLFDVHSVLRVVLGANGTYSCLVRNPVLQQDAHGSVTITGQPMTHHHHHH
Nature of the test: SPR, mAb captured, ECD analyte.

In another test the target is T5, Cyno B7-H3-ECD (his tag) (cynomolgus).
T5 construct: SPR analyte; also called soluble ECD of cyno B7-H3
T5 chain: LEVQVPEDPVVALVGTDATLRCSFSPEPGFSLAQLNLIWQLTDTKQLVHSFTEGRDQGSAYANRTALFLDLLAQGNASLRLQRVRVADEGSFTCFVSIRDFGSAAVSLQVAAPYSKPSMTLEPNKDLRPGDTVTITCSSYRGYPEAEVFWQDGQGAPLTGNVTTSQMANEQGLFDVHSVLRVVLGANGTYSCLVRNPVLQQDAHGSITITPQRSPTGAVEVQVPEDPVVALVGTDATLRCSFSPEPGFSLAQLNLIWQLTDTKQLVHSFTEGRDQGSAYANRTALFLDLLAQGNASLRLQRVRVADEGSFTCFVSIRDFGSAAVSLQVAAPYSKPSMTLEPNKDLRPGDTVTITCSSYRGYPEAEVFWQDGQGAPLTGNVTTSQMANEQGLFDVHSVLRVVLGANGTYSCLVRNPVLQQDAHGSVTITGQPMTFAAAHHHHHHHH
Nature of the test: SPR, mAb captured, ECD analyte. A general note: SPR reads the build-up and loss of mass on a sensor chip optically.

B1: Ab13 (antibody, mouse IgG1, V domains shown)
VH: DVQLQESGPDLVKPSQSLSLTCTVTGYSITSGYSWHWIRQFPGNKLEWMGYIHSSGSTNYNPSLKSRISINRDTSKNQFFLQLNSVTTEDTATYYCAGYDDYFEYWGQGTTLTVSS
VL: DIVMTQSQKFMSTSVGDRVSVTCKASQNVGFNVAWYQQKPGQSPKALIYSASYRYSGVPDRFTGSGSGTDFTLTISNVQSEDLAEYFCQQYNSYPFTFGSGTKLEIK
notes: mouse IgG1/k
For B1, the EC50 with Human full length B7-H3 stood at 1.94 nM; in test [1] it was 4.12 nM; with Mouse B7-H3 on cells it was 25.8 nM. Further, the figures for the Kd (in test [2]; in the test with Cyno B7-H3-ECD (his tag)) were 17 nM and 8.4 nM, respectively. Besides, the values for the koff (in test [2]; with Cyno B7-H3-ECD (his tag)) were 0.0058 s⁻¹ and 0.0037 s⁻¹, respectively. In addition, the values for the kon (in test [2]; in the test with Cyno B7-H3-ECD (his tag)) were 330000 M⁻¹ s⁻¹ and 440000 M⁻¹ s⁻¹, respectively.

B2: Ab5 (antibody, mouse IgG1, V domains shown)
VH: QVQLQQPGDELVKPGASVKLSCKTSGYTFTTDWMHWVKQRPGQGLEWIGMIHPNSGTTNYNEKFKSKAALTVDKSSSTACMQLSSLTSEDSAVYYCARSYWKWYFDVWGTGTTVTVSS
VL: QIVLTQSPAIMSASLGEEITLTCSASSSVSYMHWYQQKSGTSPKLLIYSTSNLASGVPSRFSGSGSGTFYSLTISSVEAEDSADYYCHQWTSYMYTFGGGTKLEIK
notes: mouse IgG1/k
B2: the EC50 was 2.71 nM with Human full length B7-H3, 1.91 nM in test [1] and 6.01 nM with Mouse B7-H3 on cells. Also, the figures for the Kd (in test [2]; in the test with Cyno B7-H3-ECD (his tag)) were 9.2 nM and 200 nM, respectively. Besides, the values for the off-rate (koff) (in test [2]; with Cyno B7-H3-ECD (his tag)) were 0.012 s⁻¹ and 0.28 s⁻¹, respectively. Further, the kon came to 1.3e+06 M⁻¹ s⁻¹ in test [2] and 1.4e+06 M⁻¹ s⁻¹ with Cyno B7-H3-ECD (his tag).

B3: Ab14 (antibody, mouse IgG1, V domains shown)
VH: EVKLVESGGGLVKPGGSLKLSCAASGFTFSSYGMSWVRQTPEKRLEWVATISGGGTNTYYPDSVEGRFTISRDNAKNFLYLQMSSLRSEDTALYYCARHYGSQTMDYWGQGTSVTVSS
VL: DIQMTQSPASLSASVGETVTITCRTSGNIHNYLTWYQQKQGKSPQLLVYNAKTLADGVPSRFSGSGSGTQFSLKINSLQPEDFGSYYCQHFWSIMWTFGGGTKLEIK
notes: mouse IgG1/k
Take B3: the EC50 in the test with Human full length B7-H3 is 3.03 nM; in test [1] it was 2.97 nM; with Mouse B7-H3 on cells it was 102 nM. Further, the Kd in test [2] is 13 nM; with Cyno B7-H3-ECD (his tag), 4.3 nM. In addition, the koff stood at 0.0014 s⁻¹ in test [2] and 0.003 s⁻¹ with Cyno B7-H3-ECD (his tag). The values for the kon (in test [2]; with Cyno B7-H3-ECD (his tag)) were 110000 M⁻¹ s⁻¹ and 690000 M⁻¹ s⁻¹, respectively.

B4: Ab8 (antibody, mouse IgG1, V domains shown)
VH: EVKLVESGGGLVKPGGSLKLSCAASGFTFSSYGMSWVRQTPEKRLEWVATISGGGNYTYCPDSVKGRFTISRDNAKNNLYLQMSSLRSEDTALYYCTRQRGYDYHYAMDFWGQGTSVTVSS
VL: DIQMTQSPASLSVSVGETVTITCRASENIYSNLAWHQQKQGKSPQLLVYAATNLADGVPSRFSGNGSDTQYSLKINSLQSEDFGSYFCQNFWGTSWTFGGGTKLEIK
notes: mouse IgG1/k
For the molecule B4, the EC50 with Human full length B7-H3 was found to be 3.83 nM; in test [1], 8.63 nM; in the test with Mouse B7-H3 on cells, 193 nM. Further, the Kd (in test [2]; with Cyno B7-H3-ECD (his tag)) was 1.7 nM in each case. For the same molecule, the koff in test [2] is 9.9e-05 s⁻¹; in the test with Cyno B7-H3-ECD (his tag), 0.00026 s⁻¹. For the same molecule, the on-rate constant (kon) is 58000 M⁻¹ s⁻¹ in test [2] and 160000 M⁻¹ s⁻¹ in the test with Cyno B7-H3-ECD (his tag).

B5: Ab18 (antibody, mouse IgG1, V domains shown)
VH: QVQLQQSAAELARPGASVKMSCKASGYSFTSYTIHWVKQRPGQGLEWIGYINPNSRNTDYNQKFKDETTLTADRSSSTAYMQLISLTSEDSAVYYCARYSGSTPYWYFDVWGAGTTVTVSS
VL: QIVLTQSPAILSASPGEKVTMTCRASSSVSYMNWYQQKPGSSPKPWIYATSNLASGVPARFSVSVSGTSHSLTISRVEAEDAATYYCQQWSSNPLTFGAGTKLELK
notes: mouse IgG1/k
As to B5, the EC50 turned out to be 5.98 nM with Human full length B7-H3 and 6.49 nM in test [1]. For the same molecule, in the test with Mouse B7-H3 on cells, the binding result is given as “no binding”. Further, the Kd was determined as 0.17 nM in test [2] and 0.12 nM with Cyno B7-H3-ECD (his tag). Further, the koff in test [2] was 3.6e-05 s⁻¹; with Cyno B7-H3-ECD (his tag) it was 2.9e-05 s⁻¹. Moreover, the on-rate (kon) in test [2] turned out to be 210000 M⁻¹ s⁻¹; with Cyno B7-H3-ECD (his tag) it was 240000 M⁻¹ s⁻¹.

B6: Ab10 (antibody, V domains shown)
VH: DVQLQESGPGLVKPSQSLSLTCTVTGYSITSDYAWNWIRQFPGNRLEWMGHINYSGITNYNPSLKSRISITRDTSKNQFFLQLYSVTTEDTATYFCARRSLFYYYGSSLYAMDYWGQGTSVTVSS
VL: DVVMTQSPFSLPVSLGDQASISCRSSQSLVHSNGNTYLHWYLQKPGQSPKLLIYKVSNRFSGVPDRFSGSGSGTDFTLKISRVEAEDLGVYFCSQSTHVPWTFGGGTKLEIK
notes: mouse IgG2b/k
In the case of B6, the EC50 with Human full length B7-H3 was determined as 3.97 nM; in test [1], 4.46 nM; with Mouse B7-H3 on cells, 3.8 nM. Also, the Kd stood at 4.6 nM in test [2] and 20 nM in the test with Cyno B7-H3-ECD (his tag). Besides, the koff was determined as 0.00019 s⁻¹ in test [2] and 0.0042 s⁻¹ with Cyno B7-H3-ECD (his tag). In addition, the kon in test [2] is 41000 M⁻¹ s⁻¹; with Cyno B7-H3-ECD (his tag) it was 200000 M⁻¹ s⁻¹.

B7: Ab3 (antibody, mouse IgG1, V domains shown)
VH: QVQLQQPGAELVKPGASVKLSCKASGYTFSSYWMHWVKQRPGQGLEWIGLIHPDSGSTNYNEMFKNKATLTVDRSSSTAYVQLSSLTSEDSAVYFCAGGGRLYFDYWGQGTTLTVSS
VL: B6 VL with S7T, F9L, N35D, H39R, S81T, W101Y
notes: mouse IgG1/k
With B7, the figures for the concentration giving a half-maximal response (EC50) (with Human full length B7-H3; in test [1]; in the test with Mouse B7-H3 on cells) were 1.66 nM, 1.42 nM and 0.94 nM, respectively. Further, the dissociation constant Kd in test [2] stood at 19 nM; with Cyno B7-H3-ECD (his tag), 26 nM. In addition, the koff (in test [2]; with Cyno B7-H3-ECD (his tag)) was 0.01 s⁻¹ each time. Further, the kon in test [2] amounted to 520000 M⁻¹ s⁻¹; in the test with Cyno B7-H3-ECD (his tag) it was 380000 M⁻¹ s⁻¹.

B8: Ab12 (antibody, mouse IgG1, V domains shown)
VH: EVQLVESGGGLVKPGGSLKLSCAASGFTFSSYAMSWVRQTPEKRLEWVATISSGTNYTYYPDSVKGRFTISRDNAKNTLYLQMTSLRSEDTAMYYCARQGRYSWIAYWGQGTLVTVSA
VL: DIVLTQSPASLAVSLGQRATISCRASKSVSTSDYSYMHWNQQKPGQPPKLLIYLASNLESGVPARFSGSGSGTDFTLNIHPVEEEDAATYYCQHSRELLTFGAGTKLELK
notes: mouse IgG1/k
For B8, the EC50 with Human full length B7-H3 was found to be 3.88 nM; in test [1] it was 6.71 nM; with Mouse B7-H3 on cells, 8.72 nM. Moreover, the results for the dissociation constant (Kd) (in test [2]; in the test with Cyno B7-H3-ECD (his tag)) were 6.7 nM and not above 0.18 nM, respectively. For the same molecule, the koff was 0.00025 s⁻¹ in test [2] and not above 1e-05 s⁻¹ with Cyno B7-H3-ECD (his tag). For the same molecule, the kon in test [2] amounted to 38000 M⁻¹ s⁻¹; in the test with Cyno B7-H3-ECD (his tag) it was 55000 M⁻¹ s⁻¹.
